# T1: soluble BCMA (UniProt Q02223 1-54, limits assumed)
# T1 sequence (looked up): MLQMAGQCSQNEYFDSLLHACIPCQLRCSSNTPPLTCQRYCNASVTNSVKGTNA
# B1: anti-BCMA scFv1 (as CAR), Example 16 (scFv)
# scFv: DIVLTQSPPSLAMSLGKRATISCRASESVTILGSHLIHWYQQKPGQPPTLLIQLASNVQTGVPARFSGSGSRTDFTLTIDPVEEDDVAVYYCLQSRTIPRTFGGGTKLEIKGSTSGSGKPGSGEGSTKGQIQLVQSGPELKKPGETVKISCKASGYTFTDYSINWVKRAPGKGLKWMGWINTETREPAYAYDFRGRFAFSLETSASTAYLQINNLKYEDTATYFCALDYSYAMDYWGQGTSVTVSS
# Key:
# soluble BCMA [1] = target: T1, soluble BCMA; experiment: apparent affinity of anti-BCMA CAR to soluble BCMA (FIG. 10A); method not described
# soluble BCMA [2] = target: T1, soluble BCMA; experiment: titration, '% of Max Binding' against 'Log Conc (nM)'; apparent affinity of anti-BCMA CAR to soluble BCMA; the text does not describe the assay
binder,measurement,setting,value
B1,Kd,soluble BCMA [1],3.2 nM
same,EC50 (read off the curve),soluble BCMA [2],~10 nM

# Reference: patent publication US20260265394A1 (CARTESIAN THERAPEUTICS, published 2026)
